According to patent US20050058639A1 (AstraZeneca / MedImmune, published 2005):

T1: recombinant human MCP-2 (human, UniProt P80075 24-99)
T1 construct: also called rhMCP-2
T1 sequence (looked up): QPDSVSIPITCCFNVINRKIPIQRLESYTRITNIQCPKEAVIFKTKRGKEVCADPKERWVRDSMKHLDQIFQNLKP

T2: human GRO/MGSA (human, UniProt P09341 35-107)
T2 construct: also called hGRO/MGSA; GRO-alpha
T2 sequence (looked up): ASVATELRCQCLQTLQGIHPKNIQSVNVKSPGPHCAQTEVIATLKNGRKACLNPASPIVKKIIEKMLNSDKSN

T3: human MIP-1-alpha (human, UniProt P10147 24-92, limits assumed)
T3 construct: also called hMIP-1-alpha
T3 sequence (looked up): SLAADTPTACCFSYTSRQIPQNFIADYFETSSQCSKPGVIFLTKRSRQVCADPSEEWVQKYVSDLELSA

T4: human RANTES (human, UniProt P13501 24-91)
T4 construct: also called hRANTES
T4 sequence (looked up): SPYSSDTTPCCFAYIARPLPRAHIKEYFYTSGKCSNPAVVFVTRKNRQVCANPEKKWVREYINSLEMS


Tests used:
[1] = target: T5, human monocyte chemo-attractant protein-1 (MCP-1) (human, UniProt P13500 24-99); test: ELISA, coated antigen
T5 construct: 76-residue recombinant protein from E. coli, bought (PeproTech); also called hMCP-1(MCAF); human MCP-1
Description: (§1) Determining cross-reactivity of anti-MCP-1 antibodies with other chemokines. ELISA plates (Fisher Cat. No. 12-565-136) were coated with 50 μl/well of MCP-1, MCP-2, MCP-3, MCP-4, RANTES, GRO-alpha, MIP-1 alpha, eotaxin, rat MCP-1 and mouse JE (2 μg/ml) in coating buffer (0.1 M carbonate buffer, pH 9.6, NaHCO₃ 8.4 g/L, then incubated at 4° C. overnight. After incubation, the plates were washed with washing buffer (0.05% Tween 20 in PBS) three times. 200 μL/well blocking buffer (0.5% BSA, 0.1% Tween 20, 0.01% Thimerosal in 1×PBS) were added and the plates incubated at room temperature for 1 hour. After incubation, the plates were washed with washing buffer three times. 50 μL/well of hybridoma supernatants, and positive and negative controls (positive control was anti-MCP-1 antibody purchased from R&D Sciences, and negative control was an antibody to Keyhole Limpet Hemocyanin produced at Abgenix) were added and the plates incubated at room temperature for 2 hours. After incubation, the plates were washed three times with washing buffer. […] After incubation, the plates were washed three times with washing buffer and 100 μL/well of TMB (BioFX Lab. Cat. #TMSK-0 100-01) was added and the plates allowed to develop for about 10 minutes.

[2] = target: T6, recombinant mouse JE/MCP-1 (mouse, UniProt P10148 24-148); test: ELISA, coated antigen
T6 construct: also called rmJE/MCP-1
Description: as §1

rat MCP-1 = rat MCP-1 (rat, UniProt P14844 24-148); test: ELISA, coated antigen
Description: as §1

recombinant human MCP-2 = target: T1, recombinant human MCP-2; test: ELISA, coated antigen
Description: as §1

recombinant human MCP-3 = target: T7, recombinant human MCP-3 (human, UniProt P80098 24-99); test: ELISA, coated antigen
T7 construct: also called rhMCP-3
Description: as §1

recombinant human MCP-4 = target: T8, recombinant human MCP-4 (human, UniProt Q99616 24-98, limits assumed); test: ELISA, coated antigen
T8 construct: also called rhMCP-4
Description: as §1

human GRO/MGSA = target: T2, human GRO/MGSA; test: ELISA, coated antigen
Description: as §1

human MIP-1-alpha = target: T3, human MIP-1-alpha; test: ELISA, coated antigen
Description: as §1

human RANTES = target: T4, human RANTES; test: ELISA, coated antigen
Description: as §1

human eotaxin = target: T9, human eotaxin (human, UniProt P51671 24-97); test: ELISA, coated antigen
T9 construct: also called hEotaxin
Description: as §1

[3] = target: T5, human monocyte chemo-attractant …; test: cell-based or functional assay
[4] = target: T5, human monocyte chemo-attractant …; test: ELISA, hybridoma supernatant on coated MCP-1
Description: Selection of candidate antibodies for ELISA. After 14 days of culture, hybridoma supernatants were screened for MCP-1-specific monoclonal antibodies. The ELISA plates (Fisher, Cat. No. 12-565-136) were coated with 50 μl/well of MCP-1 (2 μg/mL) in Coating Buffer (0.1 M Carbonate Buffer, pH 9.6, NaHCO₃8.4 g/L), then incubated at 4° C. overnight. After incubation, the plates were washed with Washing Buffer (0.05% Tween 20 in PBS) three times. 200 μl/well Blocking Buffer (0.5% BSA, 0.1% Tween 20, 0.01% Thimerosal in 1× PBS) were added and the plates incubated at room temperature for 1 hour. After incubation, the plates were washed with Washing Buffer three times. 50 μL/well of hybridoma supernatants, and positive and negative controls were added and the plates incubated at room temperature for 2 hours.
The positive control used throughout was XMG2 MCP-1 Group 1, footpad N160-7 and the negative control was XMG2 KLH Group 1, footpad L627-6. After incubation, the plates were washed three times with Washing Buffer. […] In the secondary screen, three sets of samples (positives in first screening) were screened, one set for hIgG detection, one set for hKappa detection, and one set for hlambda detection. After incubation, the plates were washed three times with Washing Buffer. 100 μL/well of TMB (BioFX Lab. Cat. #TMSK-0100-01) were added and the plates allowed to develop for about 10 minutes (until negative control wells barely started to show color), then 50 μL/well stop solution (TMB Stop Solution (BioFX Lab. Cat. #STPR-0100-01) were added and the plates read on an ELISA plate reader at wavelength 450 nm. The OD readings from the positive wells are presented in Table 9.

Sequence of rat MCP-1 (P14844 24-148 limits assumed): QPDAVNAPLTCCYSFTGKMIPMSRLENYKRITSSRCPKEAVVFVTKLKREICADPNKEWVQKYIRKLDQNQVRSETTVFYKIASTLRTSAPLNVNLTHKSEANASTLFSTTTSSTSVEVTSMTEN
T5 sequence (P13500 24-99): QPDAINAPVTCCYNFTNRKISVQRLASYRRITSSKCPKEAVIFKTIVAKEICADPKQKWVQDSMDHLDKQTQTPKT
T7 sequence (P80098 24-99 limits assumed): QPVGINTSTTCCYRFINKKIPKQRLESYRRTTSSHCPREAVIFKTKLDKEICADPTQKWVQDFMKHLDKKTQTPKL

Row | Binder | ELISA OD [1] | ELISA OD [2] | ELISA OD (rat MCP-1) | ELISA OD (recombinant human MCP-2) | ELISA OD (recombinant human MCP-3) | ELISA OD (recombinant human MCP-4) | ELISA OD (human GRO/MGSA) | ELISA OD (human MIP-1-alpha) | ELISA OD (human RANTES) | ELISA OD (human eotaxin) | IC50 Ca++ Flux [3] | IC50 Chemotaxis [3] | ELISA OD-MCP-1 [4]
1 | anti-MCP-1 mAb 1.1.1 (antibody, human IgG2, kappa, V domains shown) VH: QVQLVQSGAEVKKPGASVKVSCKVSGYTLTELSMHWVRQAPGNGLEWMGGFDPEDGETIYAQRFQGRVVMTEDPSTDTAYMELSSLRSEDTAVYYCATNEFWSGYFDYWGQGTLVTVSS VL: DIVMTQSPDSLAMSLGERATINCKSSQSVLYSSNNKNYLVWYQQKPGQPPKLLIYWASIRESGVPDRFSSSGSETDFTLTISSLQAEDVAVYYCQQYFSSPWTFGQGTKVEIKR | 0.944 OD450 | 0.045 OD450 | 0.051 OD450 | 0.051 OD450 | 0.064 OD450 | 0.052 OD450 | 0.047 OD450 | 0.044 OD450 | 0.044 OD450 | 0.042 OD450 | 0.24 µg/mL | 0.27 µg/mL | 3.64 OD450
2 | anti-MCP-1 mAb 1.5.1 (antibody, V domains shown) VH: QVQLVQSGAEVKKPGASVKVSCKVSGYTLTELSMHWVRQAPGKGLEWMGGFDPEDDETIYAQKFQGRVTMTEDTSTDTAYMELSSLRSEDTAVYFCATNDFWSGYFDCWDQGTLVTVSS VL: not shown | 1.18 OD450 | 0.043 OD450 | 0.045 OD450 | 0.047 OD450 | 0.069 OD450 | 0.05 OD450 | 0.048 OD450 | 0.041 OD450 | 0.049 OD450 | 0.043 OD450 | 0.21 µg/mL | 0.34 µg/mL | 0.51 OD450
3 | anti-MCP-1 mAb 1.10.1 (antibody, V domains shown) VH: QVQLVQSGAEVKKPGASVKVSCKVSGYTLTELSMHWVRQAPGKGLEWMGGFDPEDGETIYAQKFQGRVTMTEDTSTDTAYMELSSLRSEDTAVYYCATNEFWSGYFDYWGQGTLVTVSS VL: not shown | 1.26 OD450 | 0.041 OD450 | 0.059 OD450 | 0.04 OD450 | 0.047 OD450 | 0.052 OD450 | 0.043 OD450 | 0.043 OD450 | 0.042 OD450 | 0.05 OD450 | 0.18 µg/mL | 1.2 µg/mL | 3.85 OD450
4 | anti-MCP-1 mAb 1.8.1 (antibody, V domains shown) VH: QVQLVQSGAEVKKPGASVKVSCKVSGHIFTELSIHWVRQAPGKGLEWMGGFDPEDGETIYAQKFQGRVTMTEDTSTDTVYMELSSLRSEDTAVYYCATNDFWSGYFDYWGQGTLVTVSS VL: DIVMTQSPGSLAVSLGERATINCKSSQSILFRSNNKNYLTWYQQKPGQPPKLLIYWASIRESGVPDRFSGSGSGSNFTLTITSLQAEDVAIYYCQQYYSSPWTFGQGTKVEIKR | 1.16 OD450 | 0.045 OD450 | 0.049 OD450 | 0.048 OD450 | 0.054 OD450 | 0.046 OD450 | 0.06 OD450 | 0.045 OD450 | 0.045 OD450 | 0.047 OD450 | 0.26 µg/mL | 0.88 µg/mL | 3.47 OD450
5 | anti-MCP-1 mAb 1.6.1 (antibody, V domains shown) VH: QVQLVQSGAEVKKPGASVKVSCKVSGYTLTELSMHWVRQAPGKGLEWMGGFDPEDGETIYAQKFQGRVTMTEDTSTDTAYMELSSLRSEDTAVYYCATWYSGIYLAFDIWGQGTMVTVSS VL: EIVLTQSPDFQSVTPKEKVTITCRASQSIGSSLHWYQQKPDQSPKLLIKYASQSFSGVPSRFSGSGSGTDFTLTINSLEAEDAATYYCHQSSSLPHTFGGGTKVEIKR | 0.375 OD450 | 0.042 OD450 | 0.062 OD450 | 0.042 OD450 | 0.046 OD450 | 0.044 OD450 | 0.046 OD450 | 0.046 OD450 | 0.046 OD450 | 0.042 OD450 | 1 µg/mL | 12 µg/mL | 3.92 OD450

The next lines start with the values.

Row | ELISA OD [1] | ELISA OD [2] | ELISA OD (rat MCP-1) | ELISA OD (recombinant human MCP-2) | ELISA OD (recombinant human MCP-3) | ELISA OD (recombinant human MCP-4) | ELISA OD (human GRO/MGSA) | ELISA OD (human MIP-1-alpha) | ELISA OD (human RANTES) | ELISA OD (human eotaxin) | IC50 Ca++ Flux [3] | IC50 Chemotaxis [3] | ELISA OD-MCP-1 [4] | Binder
6 | 1.34 OD450 | 0.041 OD450 | 0.052 OD450 | 0.041 OD450 | 0.043 OD450 | 0.043 OD450 | 0.042 OD450 | 0.042 OD450 | 0.042 OD450 | 0.049 OD450 | 0.098 µg/mL | 0.81 µg/mL | 3.9 OD450 | anti-MCP-1 mAb 1.11.1 (antibody, V domains shown) VH: QVQVVQSGAEVKNPGASVKVSCKVSGSTLTELSMHWVRQAPGKGLEWMGGFDPEDGETIYAQKFQGRVTMTEDTSTDTVYMELSSLRSEDTAVYYCATNDFWSGYFDYWGQGTLVTVSS VL: DIVMTQSPDSLAVSLGERATITCKSSQTVLYSSNNKNYLVWYQQKSGQPPKLLIHWASIRESGVPDRFSGSGSGTDFTLTISSLQAEDVAVYYCQQYYSSPWTFGQGTKVEIKR
7 | 0.235 OD450 | 0.059 OD450 | 0.07 OD450 | 0.535 OD450 | 0.449 OD450 | 0.041 OD450 | 0.042 OD450 | 0.041 OD450 | 0.043 OD450 | 0.194 OD450 |  |  | 3.96 OD450 | anti-MCP-1 mAb 3.2 (antibody, V domains shown, also called 3.2 (neat)) VH: QVQLVQSGAEVKKPGASVKVSCKVSGYTLSELSMHWVRQAPGKGLEWMGGFDPEDGEIIHAQKFQGRVTMTEDTSTDTAYMELSSLRSEDTAVYYCATGDFWSGYYLDWWGQGTLVTVSS VL: EIVMMQSPATLSVSPGERATLSCRASQSVNSNLAWYQQKPGQAPRLLINGASTRATGIPARFSGSGSGTEFTLTISSLQSEDFAIYYCQQYNDWPTFTFGGGTKVEINR
